Test results published in PMC5120205.

Target: recombinant full-length IsdB, Q2FHV2
Assay: ELISA
Settings: chain shown with the change

B1: D4-10-N1 antibody (human IgG) H:Y52A; H:F53A (protein)
chain 1: QVQLQESGPGLVKPSETLSLICTVSGGSISSSSYYWGWIRQTPERNLEWIGIIAASGTTYYNPSLQSRVSMSLDRSTNRFSLRLSSVTAADTAIYYCAKPKSRDRGGPGDDYFGMDVWGQGIMVTVSS
chain 2: DIQLTQSPSFLSASVADRVTITCRASQAVRSSLAWYQQKPGKAPQLLIYSASTLENGVSSRFSGSGPGTEFTLTISSLQPEDVGTYYCQQLNTYPFTFGPGTKVEIK
percent of parent: 9%
